Square brackets hold non-standard residues; d marks the D form. Ends that are not written are not given here. Cit = NC(=O)NCCC[C@H](N)C(=O)O
Experiments:
[1] = molecular target: T1, QP943, … (SEQ ID NO: 925), state with N-terminal arginine; assay: cell-based or functional assay
T1 peptide: RVAFAYPDDDK

[2] = molecular target: T2, QP749, … (SEQ ID NO: 911), state with N-terminal arginine; assay: cell-based or functional assay
T2 peptide: RIAFAYPDDDK

[3] = molecular target: T3, QP746, … (SEQ ID NO: 913), state with N-terminal arginine; assay: cell-based or functional assay
T3 peptide: RYAFAYPDDDK

[4] = molecular target: T4, QP707, … (SEQ ID NO: 817), state with N-terminal arginine (RLAFAYPDDDK); assay: cell-based or functional assay
T4 peptide: RLAFAYPDDDK

[5] = molecular target: T5, QP938, … (SEQ ID NO: 919), state with N-terminal arginine; assay: single-molecule on-chip sequencing with PS621, PS610 and PS961; average of 10 sequencing reactions
T5 construct: State after aminopeptidase cleavage of the N-terminal leucine; residue range inferred; also called R-X peptide, X = E
T5 peptide: REAFAYPDDDK

[6] = molecular target: T6, QP941, … (SEQ ID NO: 923), state with N-terminal arginine; assay: as above
T6 construct: State after aminopeptidase cleavage of the N-terminal leucine; residue range inferred; also called R-X peptide, X = Q
T6 peptide: RQAFAYPDDDK

[7] = molecular target: T1, QP943, … (SEQ ID NO: 925), state with …; assay: as above
[8] = molecular target: T2, QP749, … (SEQ ID NO: 911), state with …; assay: as above
[9] = molecular target: T3, QP746, … (SEQ ID NO: 913), state with …; assay: as above
[10] = molecular target: T7, QP747, … (SEQ ID NO: 917), state with N-terminal arginine; assay: as above
T7 construct: State after aminopeptidase cleavage of the N-terminal leucine; residue range inferred; also called R-X peptide, X = A
T7 peptide: RAAFAYPDDDK

[11] = molecular target: T8, QP942, … (SEQ ID NO: 921), state with N-terminal arginine; assay: as above
T8 construct: State after aminopeptidase cleavage of the N-terminal leucine; residue range inferred; also called R-X peptide, X = T
T8 peptide: RTAFAYPDDDK

[12] = molecular target: T9, QP748, … (SEQ ID NO: 915), state with N-terminal arginine; assay: as above
T9 construct: State after aminopeptidase cleavage of the N-terminal leucine; residue range inferred; also called R-X peptide, X = S
T9 peptide: RSAFAYPDDDK

[13] = molecular target: T4, QP707, … (SEQ ID NO: 817), state with …; assay: as above
[14] = molecular target: T10, … (SEQ ID NO: 836), state with N-terminal SDMA (human, symmetric dimethylarginine (SDMA) at position 2 of SEQ ID NO: 836 (N-terminal residue of this state); conjugated C-terminally to a macromolecular linker); assay: single-molecule on-chip dynamic sequencing
T10 construct: residue range inferred

[15] = molecular target: T11, QP789, LCitLAFAYPDDDK (SEQ ID NO: 839), state with N-terminal citrulline (CitLAFAYPDDDK); assay: single-molecule on-chip dynamic sequencing
T11 construct: residue range inferred
T11 peptide: [Cit]LAFAYPDDDK

[16] = molecular target: T12, QP706, vimentin peptide fragment … (SEQ ID NO: 841), state with N-terminal leucine (LEQQNK); assay: single-molecule on-chip sequencing of QP706 with PS610, PS1220 and PS1223; LEQ cluster in bin ratio v. pulse duration plot
T12 construct: residue range inferred from the printed segment
T12 peptide: LEQQNK
Procedure: (§1) Sequencing reactions using the recognizers PS610 (FYW), PS1220 (R), and PS1223 (LIV) were performed separately for the QP706 and QP1073 peptide fragments. Each recognizer was labeled with a unique dye and/or unique number of dyes. A scatter plot of bin ratio v. pulse duration is shown for the QP706 peptide fragment in FIG. 18A and for the QP1073 peptide fragment in FIG. 18B. In the plot of FIG. 18A, three clusters corresponding to FLE, LEQ, and RFL segments are visible. […] In the plot of FIG. 18B, two clusters corresponding to FLE and LEQ segments are visible, but there is no cluster corresponding to RFL.

[17] = molecular target: T13, QP1073, citrullinated vimentin peptide fragment VCitFLEQQNK (SEQ ID NO: 842), state with N-terminal leucine …; assay: single-molecule on-chip sequencing of QP1073 with PS610, PS1220 and PS1223; bin ratio v. pulse duration plot
T13 construct: State after aminopeptidase cleavage
T13 peptide: LEQQNK
Procedure: as §1

[18] = molecular target: T14, QP707, LRLAFAYPDDDK (SEQ ID NO: 817) (not fully specified (C-terminus); also: surface-immobilized through C-terminal linker); assay: single-molecule on-chip sequencing; recognition of the N-terminal amino acid
T14 construct: Intact peptide, N-terminal leucine; surface-immobilized through a C-terminal linker
T14 peptide: LRLAFAYPDDDK
Procedure: (§2) In this example, sequencing reactions were conducted for 4 pairs of unmodified and citrullinated peptides: QP1028 & QP1029, QP1030 & QP1031, QP1032 & QP1033, and QP707 & QP789. […] For the QP1028 & QP1029 and QP1030 & QP1031 pairs, sequencing reactions were conducted using the PS610 (FYW) recognizer. For the QP1032 & QP1033 and QP707 & QP789 pairs, sequencing reactions were conducted using the PS1223 (LIV) recognizer.

[19] = molecular target: T15, QP1033, ICitLAFAYPDDDK (SEQ ID NO: 850) (also: C-terminal azidolysine (general statement for all synthetic peptides)); assay: as above
T15 peptide: I[Cit]LAFAYPDDDK-NH2
Procedure: as §2

[20] = molecular target: T16, QP1032, IRLAFAYPDDDK (SEQ ID NO: 849); assay: as above
T16 peptide: IRLAFAYPDDDK
Procedure: as §2

[21] = molecular target: T17, QP789, LCitLAFAYPDDDK (SEQ ID NO: 839) (also: C-terminal azidolysine (general statement for all synthetic peptides)); assay: as above
T17 construct: Intact peptide, N-terminal leucine
T17 peptide: L[Cit]LAFAYPDDDK-NH2
Procedure: as §2

[22] = molecular target: T18, QP1073, citrullinated vimentin peptide fragment VCitFLEQQNK (SEQ ID NO: 842), state with N-terminal …; assay: single-molecule on-chip dynamic sequencing; bin ratio v. pulse duration clusters
T18 construct: residue range inferred
T18 peptide: [Cit]FLEQQNK
Procedure: as §1

[23] = molecular target: T19, QP706, vimentin peptide fragment … (SEQ ID NO: 841), state with N-terminal arginine (RFLEQQNK); assay: single-molecule on-chip sequencing of QP706 with PS610, PS1220 and PS1223; RFL cluster in bin ratio v. pulse duration plot
T19 construct: residue range inferred from the printed segment
T19 peptide: RFLEQQNK
Procedure: as §1

B1: PS621 (other)
chain: MHSKFSHAGRICGAKFKVGEPIYRCKECSFDDTCVLCVNCFNPKDHTGHHVYTTICTEFNNGICDCGDKEAWNHTLFCKAEEG
notes: Dye-labeled N-terminal arginine recognizer; also called PS621 (R)
RS R-X [1]: 25.5 min
RS R-X [2]: 15.4 min
RS R-X [3]: 9.6 min
RS R-X [4]: 17.3 min
PW of R-X [5]: < 0.06 s
PW of R-X [6]: < 0.06 s
PW of R-X [7]: 0.41 s
PW of R-X [8]: 0.28 s
PW of R-X [9]: 0.18 s
PW of R-X [10]: < 0.12 s
PW of R-X [11]: < 0.06 s
PW of R-X [12]: < 0.12 s
PW of R-X [13]: 0.47 s
binding result [14]: no binding
binding result [15]: no binding

B2: PS1223 (designed binder)
chain: MPTAASATESAIEDTPAPARPEVDGRTKPKRQPRYHVVLWDDDDHTYQYVVVMLRSLFGHPPSRGYRMAKEMDTQGRVIVLTTTREHAELKRDQIHAFGRDRLLARSKGSMKASIEAEEGSAGSAAGSGEFGSAGSAAGSGEFGSAGSAAGSGEFMPTAASATESAIEDTPAPARPEVDGRTKPKRQPRYHVVLWDDDDHTYQYVVVMLRSLFGHPPSRGYRMAKEMDTQGRVIVLTTTREHAELKRDQIHAFGRDRLLARSKGSMKASIEAEE
notes: also called PS1223 (LIV)
binding result [16]: binds
binding result [17]: binds
Pulse Width [18]: 0.42 s
Pulse Width [19]: 0.84 s
Pulse Width [20]: 0.58 s
Pulse Width [21]: 0.92 s

B3: PS1220 (designed binder)
chain: MHSKFSHAGRICGAKFKVGEPIYRCKECSFDDTCVLCVNCFNPKDHLGHHVYTTICTEFNNGECDCGDKTAWNHTLFCKAEEGSAGSAAGSGEFMHSKFSHAGRICGAKFKVGEPIYRCKECSFDDTCVLCVNCFNPKDHLGHHVYTTICTEFNNGECDCGDKTAWNHTLFCKAEEG
notes: also called PS1220 (R)
binding result [22]: no binding
binding result [23]: binds

Source: patent publication US20230213527A1 (QUANTUM SI, published 2023)
